According to article PMC8501996:

Target: hRPA1;hRPA2;hRPA3 (Homo sapiens;Homo sapiens;Homo sapiens, UniProt P27694;P15927;P35244 1-616;1-270;1-121, ||)
Assay: FRET kinetics

Chain of hRPA1;hRPA2;hRPA3 (P27694 whole entry, chain 1 of 3): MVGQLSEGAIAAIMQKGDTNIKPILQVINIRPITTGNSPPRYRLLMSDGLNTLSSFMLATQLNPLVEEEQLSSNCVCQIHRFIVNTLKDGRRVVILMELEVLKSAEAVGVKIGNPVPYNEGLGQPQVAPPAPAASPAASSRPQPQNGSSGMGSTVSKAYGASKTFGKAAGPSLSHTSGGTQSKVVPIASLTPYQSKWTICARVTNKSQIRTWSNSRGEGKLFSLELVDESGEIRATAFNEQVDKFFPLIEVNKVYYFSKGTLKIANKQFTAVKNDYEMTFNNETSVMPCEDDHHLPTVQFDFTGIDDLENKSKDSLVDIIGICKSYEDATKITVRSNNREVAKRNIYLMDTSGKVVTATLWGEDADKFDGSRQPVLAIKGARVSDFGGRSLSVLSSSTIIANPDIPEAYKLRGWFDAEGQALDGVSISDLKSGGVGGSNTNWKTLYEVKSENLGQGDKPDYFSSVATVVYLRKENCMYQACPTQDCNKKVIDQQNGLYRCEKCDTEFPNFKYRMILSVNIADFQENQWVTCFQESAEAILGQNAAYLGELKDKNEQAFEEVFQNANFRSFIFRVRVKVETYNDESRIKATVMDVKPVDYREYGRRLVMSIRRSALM
Chain of hRPA1;hRPA2;hRPA3 (P15927 whole entry, chain 2 of 3): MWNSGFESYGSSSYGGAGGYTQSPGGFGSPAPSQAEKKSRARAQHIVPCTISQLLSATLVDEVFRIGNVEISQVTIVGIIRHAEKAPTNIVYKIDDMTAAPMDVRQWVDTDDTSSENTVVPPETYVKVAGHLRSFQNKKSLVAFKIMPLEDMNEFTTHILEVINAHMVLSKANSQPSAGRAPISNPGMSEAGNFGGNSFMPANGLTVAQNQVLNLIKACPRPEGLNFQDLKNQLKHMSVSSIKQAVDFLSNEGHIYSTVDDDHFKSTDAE
Chain of hRPA1;hRPA2;hRPA3 (P35244 whole entry, chain 3 of 3): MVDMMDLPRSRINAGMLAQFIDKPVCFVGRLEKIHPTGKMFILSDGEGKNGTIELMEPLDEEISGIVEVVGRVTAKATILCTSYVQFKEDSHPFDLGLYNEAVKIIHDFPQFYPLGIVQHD

B1: H69-Q2 (structured_DNA)
DNA: GGGTTAGGGTTAGGGTTAGGGTTAGGGTTAGGGTTAGGGTTAGGGTTAGGGTTAGGGTTAGGGTTAGGG
modifications: 6FAM-dT in 4th repeat (T23); TAMRA-dT in 8th repeat (T47)
  binding result: binds
